Reference: US20170290886A1, “TREATMENT OF NEURODEVELOPMENTAL DISORDERS” (Academia Sinica, priority 2016, published 2017)

Molecular target: T1, MeCP2 (Homo sapiens, UniProt P51608)
T1 construct: GST; purchased Prospec
Experiment: In vitro SUMOylation assay with recombinant proteins
Assay type: biochemical
Details: E1, E2, PIAS1 and MeCP2 proteins added; FIG. 1a
Protocol: In vitro SUMOylation assay was performed by using the SUMO link kit according to the manufacturer's instructions (Active Motif, Carlsbad, Calif.). Recombinant GST-tagged MeCP2 protein (Prospec, East Brunswick, N.J.), His-tagged PIAS1 protein purified from His-bind resin (Novagen, Wis.), and GST-tagged SENP1 protein (Enzo, Ann Arbor, Mich.) were used for assays at 30° C. for 3 h and then boiled in Laemmli sample buffer at 95° C. for 10 min. The in vitro SUMOylation product was subject to 8% SDS-PAGE followed by transferring onto the NC membrane. The membrane was immunoblotted with anti-His and anti-GST antibodies.

T1 sequence (P51608 whole entry, species assumed): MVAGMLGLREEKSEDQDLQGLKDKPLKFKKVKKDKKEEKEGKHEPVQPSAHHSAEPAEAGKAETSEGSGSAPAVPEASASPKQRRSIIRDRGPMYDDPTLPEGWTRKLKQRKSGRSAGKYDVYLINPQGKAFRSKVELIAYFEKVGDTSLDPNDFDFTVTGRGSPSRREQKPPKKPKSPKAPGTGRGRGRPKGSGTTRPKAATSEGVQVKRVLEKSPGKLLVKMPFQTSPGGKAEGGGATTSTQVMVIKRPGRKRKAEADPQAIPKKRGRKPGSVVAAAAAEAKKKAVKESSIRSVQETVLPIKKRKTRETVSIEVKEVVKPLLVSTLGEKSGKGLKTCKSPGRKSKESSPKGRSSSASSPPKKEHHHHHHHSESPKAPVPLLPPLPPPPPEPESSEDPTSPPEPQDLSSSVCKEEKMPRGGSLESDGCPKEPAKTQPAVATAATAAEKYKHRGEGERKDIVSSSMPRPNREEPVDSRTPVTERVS

MeCP2 SUMOylation: blocked
B1: SENP1: an enzyme that removes the sumo molecule from sumo-conjugated protein (protein, UniProt Q9P0U3 1-644, looked up)
Sentrin-specific protease 1: MDDIADRMRMDAGEVTLVNHNSVFKTHLLPQTGFPEDQLSLSDQQILSSRQGHLDRSFTCSTRSAAYNPSYYSDNPSSDSFLGSGDLRTFGQSANGQWRNSTPSSSSSLQKSRNSRSLYLETRKTSSGLSNSFAGKSNHHCHVSAYEKSFPIKPVPSPSWSGSCRRSLLSPKKTQRRHVSTAEETVQEEEREIYRQLLQMVTGKQFTIAKPTTHFPLHLSRCLSSSKNTLKDSLFKNGNSCASQIIGSDTSSSGSASILTNQEQLSHSVYSLSSYTPDVAFGSKDSGTLHHPHHHHSVPHQPDNLAASNTQSEGSDSVILLKVKDSQTPTPSSTFFQAELWIKELTSVYDSRARERLRQIEEQKALALQLQNQRLQEREHSVHDSVELHLRVPLEKEIPVTVVQETQKKGHKLTDSEDEFPEITEEMEKEIKNVFRNGNQDEVLSEAFRLTITRKDIQTLNHLNWLNDEIINFYMNMLMERSKEKGLPSVHAFNTFFFTKLKTAGYQAVKRWTKKVDVFSVDILLVPIHLGVHWCLAVVDFRKKNITYYDSMGGINNEACRILLQYLKQESIDKKRKEFDTNGWQLFSKKSQEIPQQMNGSDCGMFACKYADCITKDRPINFTQQHMPYFRKRMVWEILHRKLL
modifications: GST tag
notes: an enzyme that removes the sumo molecule from sumo-conjugated protein
